Test results from PMC12691273.

Target: T1, 14-3-3 protein, Q5ZKC9
T1 chain: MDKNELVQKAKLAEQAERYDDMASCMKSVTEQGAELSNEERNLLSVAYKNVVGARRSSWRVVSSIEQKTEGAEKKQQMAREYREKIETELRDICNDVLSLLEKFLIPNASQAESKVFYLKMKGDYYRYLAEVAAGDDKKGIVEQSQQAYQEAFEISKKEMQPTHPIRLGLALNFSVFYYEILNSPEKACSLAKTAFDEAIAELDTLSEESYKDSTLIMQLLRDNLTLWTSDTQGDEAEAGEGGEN
Test: co-immunoprecipitation (IP FOXO1, WB 14-3-3), band quantification
Conditions: chain shown with the change; chicken granulosa cells, with 740-Y-P; n = 3; parent: est. 3.7; read off a plot

Binder | response
chicken forkhead box O1 (FOXO1) wild-type, A0A8V0XGP1 S311A (protein) MAEAPQLVDIDPDFEPLPRPRSCTWPLPRPEFNPPSSATSSPAPSCGGQPDGAAAAGAAVAVAASGALSADFISNLCLVEESEDFALPPAAAAPPESAACRCGDFSAPEAGCRLHPPGPPPVPPVPPAVAALSPGPVAGQPRKSSSSRRNAWGNLSYADLITKAIESSPEKRLTLSQIYEWMVKSVPYFKDKGDSNSSAGWKNSIRHNLSLHSKFIRVQNEGTGKSSWWMLNPEGGKSGKSPRRRAASMDNNSKFAKSRGRAAKKKASLQSGQEGNGDSPGSQFSKWPASPSSHSNDDFDNWSTFRPRTSANASTISGRLSPILPEQDDLGDGDVHSMVYPSSATKMTSTLPSLSEMSSSENMENLLDNLNLLSPNTSMTVSTQSSSAALMQQTPGYSFASSTTSICSPNPDYRKFTYAQASMNSLPQIPMQTLQDSKSSYGSMSQFNCPAGLLKELLTSDSPPHNDILASVDTGVSQAGGRALGQGVLMVTNSVMPTYGNQPPHNKMMNPNARPHQGHNQPTPAVNGRALSHTVNPMSHTSCLNRLSTVKTSLQVPMSHQMQMNAMNPYAPVNSCNGYGRVGIVSLHQEKLPSDLDDMLIERLDCDMESIIRNDLMDGETLDFNFDSVLPNQSFQHSVKTTTHSWVSG | 3.7
chicken forkhead box O1 (FOXO1) wild-type, A0A8V0XGP1 S248A (protein) MAEAPQLVDIDPDFEPLPRPRSCTWPLPRPEFNPPSSATSSPAPSCGGQPDGAAAAGAAVAVAASGALSADFISNLCLVEESEDFALPPAAAAPPESAACRCGDFSAPEAGCRLHPPGPPPVPPVPPAVAALSPGPVAGQPRKSSSSRRNAWGNLSYADLITKAIESSPEKRLTLSQIYEWMVKSVPYFKDKGDSNSSAGWKNSIRHNLSLHSKFIRVQNEGTGKSSWWMLNPEGGKSGKSPRRRAAAMDNNSKFAKSRGRAAKKKASLQSGQEGNGDSPGSQFSKWPASPSSHSNDDFDNWSTFRPRTSSNASTISGRLSPILPEQDDLGDGDVHSMVYPSSATKMTSTLPSLSEMSSSENMENLLDNLNLLSPNTSMTVSTQSSSAALMQQTPGYSFASSTTSICSPNPDYRKFTYAQASMNSLPQIPMQTLQDSKSSYGSMSQFNCPAGLLKELLTSDSPPHNDILASVDTGVSQAGGRALGQGVLMVTNSVMPTYGNQPPHNKMMNPNARPHQGHNQPTPAVNGRALSHTVNPMSHTSCLNRLSTVKTSLQVPMSHQMQMNAMNPYAPVNSCNGYGRVGIVSLHQEKLPSDLDDMLIERLDCDMESIIRNDLMDGETLDFNFDSVLPNQSFQHSVKTTTHSWVSG | 2.7
